Assay results taken from the DeepSol protein solubility set.

Assay: soluble on expression in E. coli; label from the status in PepcDB or PDB records

Row | Sequence | soluble on expression in E. coli
1 | MIETSLDFSGLNDIAKDLEALSRAENNKVLRDATRAGAEVLKEEVIDRAPVRTGKLKKNVVVVTQKSRRRGEISSGVHIRGVNPRTGNSDNTMKANNPRNAFYWRFVELGTANMPAHPFVRPAYDTREEEAASVAIARMNQAIDEVLSK | not soluble
2 | MIEVDGYFYHNAGAENKNTFVNDRWKMNDAAVRGYLVLRYPASSVFEELDTIVGQVIFATRVVREELVVVDSTRRWHRGPWEWLPLDSW | not soluble
3 | MIEYAALKFNVVSDPMSETAKKVIVGMSGGVDSSVSAWLLQQQGYQVEGLFMKNWEEDDGEEYCTAAADLADAQAVCDKLGIELHTVNFAAEYWDNVFELFLAEYKAGRTPNPDILCNKEIKFKAFLEFAAEDLGADYIATGHYVRRADVDGKSRLLRGLDSNKDQSYFLYTLSHEQIAQSLFPVGELEKPQVRKIAEDLGLVTAKKKDSTGICFIGERKFREFLGRYLPAQPGKIITVDGDEIGEHQGLMYHTLGQRKGLGIGGTKEGTEEPWYVVDKDVENNILVVAQGHEHPRLMSVGLIAQQLHWVDREPFTGTMRCTVKTRYRQTDIPCTVKALDDDRIKVIFDEPVAAVTPGQSAVFYNGEVCLGGGIIEQRLPLPV | not soluble
4 | MIFDHGKKLMKRVERYSGCSSGSLVAAMFIFNPEKLVFLVSFRKTKGRLPLFSLFLLNFRNLCILSISEAVEEIYKMADEVNDKTLGAMSPGFVISDRLRKVVEKFLPDDVAKANDLLFVSVTKLKTWKNELISNFESKIDLIDCLMASCYHPMYSSGLNGKAPILRGEAYIDGGYSNMIPEFLDMRTVTVSAFAGDADICPVEKSALFNDFMFAFFNQNMKLTLSNMKRVTNALFPPTRAILQEYFNAGARDAEKLLKDSGFYE | not soluble
5 | MIFINREREMKILEKEWENRPSFVVLYGRRRVGKTRLLREFSKAKKTFFFVFPEAIKEIQMREFKDAMADFLGDEFIRKLKTDNWFDLLKYLAEEVDDCLIVLDEFTYAVKSDRKILSDLQRVWDIILSEKKVMLVLSAPLLGMMWDEVLSHASPLYGRRTRSMHLKPLNYPDALNFFSDWEFGIRAYMLVGGIPSYLKLASRYNTIEDFLREEFLSDYGFFYDEPYVLLSEELRELRTYFSILIAIAEGNRRLERIANFVGLPARSIYPYVETLMRLGFIEKESPILGSRKVSLYRIKDPMLLTWLTLTYPQMAEISSGTAKLDKLYRVYSIRFEELAKEFLTLFRPIEFKTLGRWWYRGEEIDIVAIDEDIANLIEVKWMDLRKKEALRVLQELEEKAKKVNFSGKINLGIVARNVEKKEELRKEGYLVWDLEDILEAAGNSEREKLLEHHHHHH | not soluble
6 | MIFYLLPSEKKQSTMDLVKEDYFSIWENREKNRFPELNPYRKELIEYFKVETKPLAPAWRRYNGKFWDSLEFWCLPPEVQQNIIDRGIIISPLFGMLGVNDPIPRYSVTFQDKYKGKKLTEFWKEVLKDISKKMFESSVIFDFLTTEQRETLTFPEDVTFVRFDYIRKGKKVVNPMPHRAYTLRYIVEKNVDLNSLEKINFYDYKVSKIEKEGNVIRVIMESEGRYI | not soluble
7 | MIGFLSDRQGFEKQYHDIDLSSFGIREGISEIIASTGFEHPNAAPIGIVMKGERPFVRLFKGSHTWENVLKEKCLASNVVYDPILFVRSTFSDLVPSEFEYVDAGEFKFPVLKEAIAWVVFECINLRNTDQSLVADLVPLNAGFNERNIKELPVPNRGFNAVLEATVHATRYQLTGEEKYLELIRHYESLASKCGGDAEKKAMKLIYEALGLLEHHHHHH | not soluble
8 | MIGGRDDYPESGFSLPFEPGPRRMQIKRGIRILGIDDSPFSRGDRESNLVGVLMRMDGYVEMMEKEKIQVDGDDVNRAIENLFLYTGRVARIIMMSGISFAGFNICDIDALYQRIRVPVISVFEQGGSVERMIAAIEKHLDDPEKVRILRSLKPVEIRNNGYIIMANLSGIDAQSAQEIITRNTIRGKFPEAIRLADLVGKILGR | not soluble
9 | MIGILIPVHNEEQLLDLCLETIKQAAAHPALKGEQVEVLVVLDSCTDRSAEIARAHGVMILEVTARNVGQARAEGAAFLLDRGARWLACTDGDSSVASDWLAEQLALDADAVCGTVTLGDWNNDISAPARAAYLKHYQQRDGHRHIHGANLGVSSIAYISAGGFPSLTCHEDVHLVRQLELIGARIAWSCRPRVTTSTRLNSKARGGFGDYLSSLNALEHHHHHH | not soluble
10 | MIGMVNVQCDTPLDYYATAPNLLSRDTSVRKRGDSESANASRHNSTKRTPSWRPLFTGQGKKKSSKPKYLQDGRKMTEDGHDEPNKLWEELFLRSFAHKIEQEISSPSPLEAHKNLNSELSKLNIQDKSFYRSTYSLVSPTRIENTDFEELERIENQEKTQDDSKPNRSNSSTERPSSQICSVFLPFIKTIKGNKKKNSITSVNNNTKNS | not soluble
11 | MIHLEHINLVVDDIPKALIFYQAAFPHWRIRGGGESTWYSKPRNWTHFGDDYQYIAFSDNGEGENRDLTGHQIGLAHFAFVVSDLDAIITRLTQAGFPIAKEGMEDPYRRNIYFFDAHGFEVEFVEYLSDIPAERNRYLEHHHHHH | soluble
12 | MIHTEPSAQPSTMDTAAFLKHIESAFRRIFSDGIDLMRYLPEDKWLALKQAGLLLPFLDKKYGGRKGSQFEIQEVLRIAGHYGVPVTLRTGIEGALVLQPLQEFGDEAQVAQGLEMIFKGEGGGLGVTEPETSGAAIAREMQSYYEYIDGQTIYVNAAKYWQGNSQSDFLLVAAKERKNGKLAKVIDLLLVPKTYIRCETLASEGLRAVRYAVNRIDAEMPATAVMKLSQSDAAGLRAFQNIFIRSRLQLIGMTHGIMEYILENLERYVRNDIKFVDYERREIRRRHQVSEILYRYVCHSVSPVAPVAHQLMEANIVKTLATEYTYAAAQMLQKLLGAKGFERGHTAGNIAIDIRPFTIFEGPNDMLYAEIYDQFVRATAEEKEAGMKLDKNQTLLDRLQTDARFAAVARDYTLPEDIRSFLQEHTLTDACALQKVFIGKIIARLFVFVQAKHEDTAAFLLNDIRKDILDCRYCG | not soluble
13 | MIHYKIAPSPLDHEWHILLKFTQDNDFPIEISLPNWVPGSYLIRDFSRHITSIHASCNGTSMPLEQIAKNRWHTAAVRGEWQIRYTVYAFDLSVRGSFLTTERGFFDGSCLFLKVEGTETLPHRLELTGIPPEWRIATTLPETGRLVFQTASYDELIDRPVEMGLIEFLDFEAAGIPHTIALNGIYPDFDRDRLVSDIKKICETELAMFSSPAPFEKYLFLLHVGDHIYGGLEHTDSTALLADRHSLPPYGMTDADDAYTTLLGLFSHEYFHAWNVKSIKPAAFAPYDLDKENYTEQLWAFEGITSYYDDLFLARSRTISPEFYLNLLAQGITRVQQTRGRLRQTLAESSFTAWNKFYKPDENSPNAIVSYYQKGALAALCLDLIIRNRSNGRHSLDTVMDKLYREWRDTHSGIPEKHWQIRCQEITGLDLTDFFQTALYSTEDLPLAECLATTGVKLTFLPLPRQHGGGYAEHIFPIPPTGDFGARFKQNADHIVLTHVFNGGSAESAALCPQDKIIALDGYACTDFAAQWARYHVRAKINIHFFRAGILRQTVLTVQATAADTAILHITDRNLLENWLFGLEHHHHHH | not soluble
14 | MIIAGVDIGNSTTEVALAKVNGDEIRFLASGISNTTGIKGTPQNVEGVRHALEDAVRKANLTIKDIDLLRINEATPVISDIAMEAITETIITESTMIGHNPTTPGGVGLGIGITIPIFELEKCKHGEEVIVVIPKNVDYEDAAKIINNAFSKGVEVKGAIAQKDDGVLIATRLQRRIPIVDEVKQIEKVPIGMLACVEVAEPGYTIKTLSNPYGIASVFNLTAEETKNIVPVARALIGNRSAVVIRTPKGEVQERKIPAGTLIIKGNNRTFTVDIEEGAEAIMSAVESTWPLVDAEGTPGTNVGGLIARIKETMADVTGQDSSNIQIQDVLAVDTLVRQKVKGGIAEEFSSENAVALAAMVKSSKLPMEKVAQKIEQEIGIAVEIAGIEANMAIIGALTTPGTELPLAILDLGGGSTDAALMTKNGEVKSVHMAGAGEMVNMLIKTELGIEDKYLVEDIKKYPVCRVESLFSIRLEDGTVRFFKEPLDPRTFARVCLLREDGLLPLPPELNMEKVINVRRNAKRKVFVTNALRALSKVAPAGNIRLIDFVVMVGGSALDFEIPEMISDTLAGYGIVAGRGNIRNVEGPRNAVATGLVLSRCKRK | not soluble
15 | MIIKRTPQAASPLASWLSYLENLHSKTIDLGLERVSLVAARLGVLKPAPFVFTVAGTNGKGTTCRTLESILMAAGYKVGVYSSPHLVRYTERVRVQGQELPESAHTASFAEIESARGDISLTYFEYGTLSALWLFKQAQLDVVILEVGLGGRLDATNIVDADVAVVTSIALDHTDWLGPDRESIGREKAGIFRSEKPAIVGEPEMPSTIADVAQEKGALLQRRGVEWNYSVTDHDWAFSDAHGTLENLPLPLVPQPNAATALAALRASGLEVSENAIRDGIASAILPGRFQIVSESPRVIFDVAHNPHAAEYLTGRMKALPKNGRVLAVIGMLHDKDIAGTLAWLKSVVDDWYCAPLEGPRGATAEQLLEHLGNGKSFDSVAQAWDAAMADAKAEDTVLVCGSFHTVAHVMEVIDARRSGGK | soluble
16 | MIIPEYGRTLTPEEWRPVVDEMLEATHIIFTTHENSDGDGLGSQVALALALKALGKEVAIFNPTEVPPNYLFLKELHEINLFRDRDEESMQEFFLADLLVVLDANLHDRIGRLWPHVEFARQMSRLKVLCIDHHLEPEDFADITVCETYASSTGELVCDLVTALELRTGQQLFTPEVASALYAAIMTDTGSFRFPKTTPYTYRLAGMLVEKGADPELVYDRIYNALTPEALKLLGLSLSNIKIIENGLISWLFITQEMLEQTGSKLFDTDLIIRYLLSVPTVKVAVLLVEMQDGRCKVSFRSRGKIYVNQLAKHYGGGGHMNAAGCLLRMSAEKAQLVILEDVRKFTLEQVDS | soluble
17 | MIIRIVQNIQRINKEGNAPLYISFYLGKEKVVIPCKLSVPTTKFDSKTGMLRGTNKEAKDINLIIERLKAKVNDILVKHRLKNLTLNKEAFMREYNNPSDFKSFHDFVASYMKTYSRRLEIGTFRHHKSCMRKFKEYCEGLQFHELTEDFLRDYLIYMKKTLCNADSTAQRNLSTIKIYVSAAIKKGYMENDPFKDFGVKRIKSNIDYLTEEELIKFISLYYDRRLPERLERTLGFFLFMCFTSLHISDARHVCLEQINNGILTYYRIKNRNCKPEAIKIPLSIPAFKIIEELQGKRKEGH | not soluble
18 | MIKEKYTFDDLVEIMKILRSENGCPWDRVQNHESLKKYLIEETYEVLEVIDLNDKKRLCEELGDLLLQIVFHAQIASEDNEFDINDVITGICRKMVQRHTHVFGTDKADTAEEVLANWEEIKKKEKGMESQTEVLKSVPSNLPALMRSYKVQQKASQVGFDWKDIDSVFEKVYEEINELRDVYKSKDVERINDELGDVLFSIVNLSRFLKVQPELALMGSVNKFIERFEFIEKEAAKSGRTLSEMSLDEMDELWNKAKTKI | soluble
19 | MIKLIATDMDGTFLAEDGTYNQEQLAALLPKLAEKGILFAVSSGRSLLAIDQLFEPFLDQIAVIAENGSVVQYRGEILFADMMTKEQYTEVAKKILANPHYVETGMVFSGQKAAYILKGASEEYIQKTKHYYANVKVINGFEDMENDAIFKVSTNFTGHTVLEGSDWLNQALPYATAVTTGFDSIDIILKEVNKGFGMEHLCQALGIKKAETIAFGDNFNDYQMLEFAGRAIATENARPEIKVISDQVIGHCNDGAVLTYLKGLV | not soluble
